The target of the experiment is T1, mouse pIgR extracellular domain (ECD) (mouse, UniProt O70570 19-645).
T1 construct: The entry ends with a C-terminal HHHHHH tag; also called mpIgR; mpIgR ectodomain
T1 sequence: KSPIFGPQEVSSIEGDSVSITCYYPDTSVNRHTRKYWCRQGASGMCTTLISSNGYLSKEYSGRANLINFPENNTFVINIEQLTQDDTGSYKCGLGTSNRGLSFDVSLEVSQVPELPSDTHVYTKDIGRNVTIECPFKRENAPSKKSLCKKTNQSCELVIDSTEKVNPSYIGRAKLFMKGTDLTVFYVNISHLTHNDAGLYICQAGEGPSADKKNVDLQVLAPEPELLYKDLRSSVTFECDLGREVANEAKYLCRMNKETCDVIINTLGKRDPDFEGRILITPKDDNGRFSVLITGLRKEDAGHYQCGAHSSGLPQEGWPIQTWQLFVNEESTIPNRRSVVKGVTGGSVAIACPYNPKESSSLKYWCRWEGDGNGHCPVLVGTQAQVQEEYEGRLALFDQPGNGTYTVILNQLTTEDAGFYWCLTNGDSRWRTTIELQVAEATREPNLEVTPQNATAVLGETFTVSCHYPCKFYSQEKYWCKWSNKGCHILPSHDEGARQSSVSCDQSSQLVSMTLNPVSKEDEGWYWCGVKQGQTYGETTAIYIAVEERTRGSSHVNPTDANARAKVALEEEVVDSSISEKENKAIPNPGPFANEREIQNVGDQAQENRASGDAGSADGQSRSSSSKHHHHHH
Kind of experiment: not named on the sheet.

B1: VHH3 - linker-mono-Fc protein (Fc fusion)
chain: QLQLVESGGGLVQPGGSLRLSCAASGSIFSINVMGWYRQAPGKQRELVARINGGGITHYAESVKGRFTISRDNAKNTVYLQMNSLKPEDTAAYYCKADVFGSSGYVETYWGQGTQVTVSSEPKTPKPQPQPQLQPQPNPTTESKSPKSPAPELLGGPSVFLFPPKPKDTLMISRTPEVTCVVVDVSHEDPEVKFNWYVDGVEVHNAKTKPREEQYNSTYRVVSVLTVLHQDWLNGKEYKCKVSNKALPAPIEKTISKAKGQPREPQVYTKPPSREEMTKNQVSLSCLVKGFYPSDIAVEWESNGQPENNYKTTVPVLDSDGSFRLASYLTVDKSRWQQGNVFSCSVMHEALHNHYTQKSLSLSPGK
notes: also called VHH3-mono-Fc; hpIgR_021
In the case of B1, the binding result is reported as “binds”.

B2: VHH2 - linker-mono-Fc protein (Fc fusion)
chain: EVQVVESGGGLVQAGGSLKLACAAPGLTFSSYRMGWFRQAPGQEREFVAAIDWNGRGTYYRYYADSVKGRSTISRDNAKNTVYLQMNSLKPEDTAVYYCAATTVLTDPRVLNEYATWGQGTQVTVSSEPKTPKPQPQPQLQPQPNPTTESKSPKSPAPELLGGPSVFLFPPKPKDTLMISRTPEVTCVVVDVSHEDPEVKFNWYVDGVEVHNAKTKPREEQYNSTYRVVSVLTVLHQDWLNGKEYKCKVSNKALPAPIEKTISKAKGQPREPQVYTKPPSREEMTKNQVSLSCLVKGFYPSDIAVEWESNGQPENNYKTTVPVLDSDGSFRLASYLTVDKSRWQQGNVFSCSVMHEALHNHYTQKSLSLSPGK
notes: also called VHH2-mono-Fc; mpIgR_338
On to B2, for which the binding result is given as “binds”.

For the origin of these results see patent US20230019640A1 (Janssen / Centocor, published 2023).
